Reference: article PMC7154896, “The Effect of Recombinant Tags on Citrus paradisi Flavonol-Specific 3-O Glucosyltransferase Activity” (Plants, 2020)

Tests used:
untagged Cp3GT = biological target: T1, untagged Cp3GT (Citrus x paradisi, UniProt C5MR71); test: glucosyltransferase assay, UDP inhibition; type: biochemical
T1 construct: recombinant, Pichia pastoris X-33 (pPicZa), C-terminal c-myc/6x His tags cut off with thrombin; cobalt IMAC; 56 kDa on gel
T1 sequence (C5MR71 1-468): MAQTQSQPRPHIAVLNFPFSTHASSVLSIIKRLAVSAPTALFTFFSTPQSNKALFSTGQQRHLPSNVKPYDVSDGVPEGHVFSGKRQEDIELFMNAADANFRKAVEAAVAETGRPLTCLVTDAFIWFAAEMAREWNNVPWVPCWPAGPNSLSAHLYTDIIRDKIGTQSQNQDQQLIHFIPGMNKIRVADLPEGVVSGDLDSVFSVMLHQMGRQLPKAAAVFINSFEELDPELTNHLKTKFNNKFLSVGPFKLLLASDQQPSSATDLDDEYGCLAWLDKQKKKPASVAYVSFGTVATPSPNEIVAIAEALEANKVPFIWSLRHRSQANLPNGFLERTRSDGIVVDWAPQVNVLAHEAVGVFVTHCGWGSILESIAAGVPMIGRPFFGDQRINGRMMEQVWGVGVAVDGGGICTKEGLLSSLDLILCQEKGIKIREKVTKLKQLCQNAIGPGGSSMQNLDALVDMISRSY

tagged Cp3GT = biological target: T2, tagged Cp3GT (Citrus x paradisi, UniProt C5MR71); test: glucosyltransferase assay, UDP inhibition; type: biochemical
T2 construct: recombinant, Pichia pastoris X-33 (pPicZa), C-terminal thrombin site and c-myc/6x His tags kept; cobalt IMAC
T2 sequence (C5MR71 1-468): T1 sequence (C5MR71 1-468)

[1] = substrate: O=c1ccn([C@@H]2O[C@H](CO[P@@](=O)(O)O[P@@](=O)(O)O[C@H]3O[C@H](CO)[C@@H](O)[C@H](O)[C@H]3O)[C@@H](O)[C@H]2O)c(=O)[nH]1; test: glucosyltransferase assay, Lineweaver-Burk; type: biochemical, Citrus x paradisi; conditions: UDP-glucose varied 0–1333 µM, non-limiting acceptor (not named), 30 °C, pH 7.5, µM
Source text: (§1) glucosyltransferase assay, Lineweaver-Burk on tagged Cp3GT

[2] = substrate: O=c1c(O)c(-c2ccc(O)c(O)c2)oc2cc(O)cc(O)c12; test: glucosyltransferase assay, Lineweaver-Burk; type: biochemical, Citrus x paradisi; conditions: acceptor varied 0–667 µM, non-limiting UDP-glucose, 30 °C, pH 7.5, µM
Source text: as §1

purified protein = substrate: O=c1c(O)c(-c2ccc(O)cc2)oc2cc(O)cc(O)c12; test: purified protein; conditions: acceptor varied 0–667 µM, non-limiting UDP-glucose, 30 °C, pH 7.5, µM
[3] = substrate: O=c1ccn([C@@H]2O[C@H](CO[P@@](=O)(O)O[P@@](=O)(O)O[C@H]3O[C@H](CO)[C@@H](O)[C@H](O)[C@H]3O)[C@@H](O)[C@H]2O)c(=O)[nH]1; test: glucosyltransferase assay, Lineweaver-Burk; type: biochemical, Citrus x paradisi; conditions: UDP-glucose varied 0–1333 µM, non-limiting acceptor (not named), 30 °C, pH 7.5, µM; remark: listed apart in the source
Source text: (§2) glucosyltransferase assay, Lineweaver-Burk on untagged Cp3GT

[4] = substrate: O=c1c(O)c(-c2ccc(O)c(O)c2)oc2cc(O)cc(O)c12; test: glucosyltransferase assay, Lineweaver-Burk; type: biochemical, Citrus x paradisi; conditions: acceptor varied 0–667 µM, non-limiting UDP-glucose, 30 °C, pH 7.5, µM; remark: listed apart in the source
Source text: as §2

For `O=c1ccn([C@@H]2O[C@H](COP(=O)(O)OP(=O)(O)O)[C@@H](O)[C@H]2O)c(=O)[nH]1` [UDP], the Ki (untagged Cp3GT) was 73.1 µM and the Ki (tagged Cp3GT) was 61.8 µM.

B1: tagged Cp3GT (Citrus x paradisi) (protein)
chain: T1 sequence (C5MR71 1-468)
notes: recombinant, Pichia pastoris X-33 (pPicZa), C-terminal thrombin site and c-myc/6x His tags kept; cobalt IMAC
B1 showed a Km [1] of 49.7 ± 5.32 µM, a kcat [1] of 0.637 ± 0.092 s⁻¹ and a kcat/Km [1] of 12000 ± 2000 M⁻¹ s⁻¹. The Km [2] was 51.9 ± 8.29 µM, the kcat [2] was 1.84 ± 0.19 s⁻¹ and the kcat/Km [2] was 35000 ± 1000 M⁻¹ s⁻¹. It also gave a Km (purified protein) of 44.1 ± 3.41 µM, a kcat (purified protein) of 1.28 s⁻¹ and a kcat/Km (purified protein) of 29000 M⁻¹ s⁻¹.

B2: untagged Cp3GT (Citrus x paradisi) (protein)
chain: T1 sequence (C5MR71 1-468)
notes: recombinant, Pichia pastoris X-33 (pPicZa), C-terminal c-myc/6x His tags cut off with thrombin; cobalt IMAC; 56 kDa on gel
With B2 the Km [3] was 55.0 ± 4.97 µM, the kcat [3] was 0.738 ± 0.125 s⁻¹ and the kcat/Km [3] was 12000 ± 400 M⁻¹ s⁻¹. For the same molecule, the Km [4] was 42.4 ± 3.48 µM, the kcat [4] was 1.54 ± 0.06 s⁻¹ and the kcat/Km [4] was 36000 ± 1000 M⁻¹ s⁻¹. The Km (purified protein) was 53.7 ± 10.6 µM, the kcat (purified protein) was 1.34 s⁻¹ and the kcat/Km (purified protein) was 25000 M⁻¹ s⁻¹.
